Source: doi:10.1101/2021.08.16.456468, “Positive and negative control of helicase recruitment at a bacterial chromosome origin” (bioRxiv, 2021)

How the values were obtained:
[1] = target: the molecule itself; assay: SEC-MALS; purified DnaD variants, size exclusion chromatography followed by multiple angle light scattering
[2] = target: the molecule itself; assay: cross-linking; amine-specific BS^3, SDS-PAGE, immunoblot

Protein | stoichiometry N [1] | stoichiometry N [2]
DnaD, wild type, purified (natural protein, B. subtilis, UniProt P39787 1-232, looked up, DnaD, Bacillus subtilis, the full-length protein; tetramer of about 113 kDa by SEC-MALS (theoretical 110 kDa); also called wild-type DnaD; wild-type tetrameric DnaD) MKKQQFIDMQEQGTSTIPNLLLTHYKQLGLNETELILLLKIKMHLEKGSYFPTPNQLQEGMSISVEECTNRLRMFIQKGFLFIEECEDQNGIKFEKYSLQPLWGKLYEYIQLAQNQTQERKAEGEQKSLYTIFEEEFARPLSPLECETLAIWQDQDQHDAQLIKHALKEAVLSGKLSFRYIDRILFEWKKNGLKTVEQAKIHSQKFRRVQAKQNEPQKEYKRQVPFYNWLEQ | 4 | –
DnaD^K3A (natural protein, B. subtilis, UniProt P39787 1-232, looked up, DnaD, Bacillus subtilis, with K3A, used in BS^3 cross-linking) MKAQQFIDMQEQGTSTIPNLLLTHYKQLGLNETELILLLKIKMHLEKGSYFPTPNQLQEGMSISVEECTNRLRMFIQKGFLFIEECEDQNGIKFEKYSLQPLWGKLYEYIQLAQNQTQERKAEGEQKSLYTIFEEEFARPLSPLECETLAIWQDQDQHDAQLIKHALKEAVLSGKLSFRYIDRILFEWKKNGLKTVEQAKIHSQKFRRVQAKQNEPQKEYKRQVPFYNWLEQ | – | 2
DnaD^F6A, purified (natural protein, B. subtilis, UniProt P39787 1-232, looked up, DnaD, Bacillus subtilis, with F6A; eluted as a 57 kDa species (dimer); The measured mass fits the whole protein) MKKQQAIDMQEQGTSTIPNLLLTHYKQLGLNETELILLLKIKMHLEKGSYFPTPNQLQEGMSISVEECTNRLRMFIQKGFLFIEECEDQNGIKFEKYSLQPLWGKLYEYIQLAQNQTQERKAEGEQKSLYTIFEEEFARPLSPLECETLAIWQDQDQHDAQLIKHALKEAVLSGKLSFRYIDRILFEWKKNGLKTVEQAKIHSQKFRRVQAKQNEPQKEYKRQVPFYNWLEQ | 2 | –
DnaD^1-205, purified (domain or fragment, B. subtilis, UniProt P39787 1-205, looked up, also called DnaD variant lacking the C-terminal tail) MKKQQFIDMQEQGTSTIPNLLLTHYKQLGLNETELILLLKIKMHLEKGSYFPTPNQLQEGMSISVEECTNRLRMFIQKGFLFIEECEDQNGIKFEKYSLQPLWGKLYEYIQLAQNQTQERKAEGEQKSLYTIFEEEFARPLSPLECETLAIWQDQDQHDAQLIKHALKEAVLSGKLSFRYIDRILFEWKKNGLKTVEQAKIHSQK | 4 | –
